Data: the nanobody polyreactivity screen of Harvey et al. (2022)

Test: yeast display, Sf9 membrane polyspecificity reagent, FACS + sequencing; frameworks hold sequencing errors
Procedure, shortened: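 Galactose induction of a Saccharomyces cerevisiae BJ5465 synthetic nanobody display library ran 36–48 hours. The cells were then stained for 1 hour at 4 °C with 10% biotinylated, detergent-solubilized Sf9 membrane reagent, pulled down on streptavidin microbeads and FACS-sorted into low and high (top ~1%) gates on expression and reagent-binding fluorescence. Labels for polyreactivity follow the gate of origin.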

| Sequence | polyreactivity (PSR sort gate) |
| --- | --- |
| QVQLVESGGGLVQAGGSLRLSCAASGFTFGSNAMGWYRQAPGKEREFVATITKSGGRTYYADSVKGRFTISRDNAKNTVYFQMNSLKPEDTAVYYCAVALSYRTYRKDDYWGQGTQVTVSS | high polyreactivity |
| QVQLVESGGGLVQAGGSLRLSCASSGRIFRYYAMGWYRQAPGKERELVAAINWSGGSTYYADSVKGRFTISRDNAKNTVYLQMNSLNPEDTAVYYCYRRAYIRYDSSSLDYWGQGTQVTVSS | low polyreactivity |
| QVQLVESGGGLVQAGGSLRLICAASGSTFIKYTMGWYRPAPGKERELVAAISRIGGSTYYADSVKGRFTISRDNAKNTVYLQMNSLKPEDTAVYYCAAPYPIGHDWGQGTQVTVSS | low polyreactivity |
| QVQLVESGGGLVQAGCSLRLSSPASGRIFWANVMGWYRQAPGKERELVAAISYSGTGTYYADSVKGRFTISPDYAKNTVYLQMNSLKPEDTAFYYFAKAPYIYYWGQGTHVTVSS | high polyreactivity |
| QVQLVESGGGLVQAGGSLRLSCAASGSTFATYAMVWYRQAPGKERELVAAITSGGSTYYADSVKGRFTISRDNAKNTVYLQMNSLKPEDTAVYYCAARSYGWRRATYYKREEYWGQGTQVTVSS | high polyreactivity |
| QVQLVESGGGLVQAGGSLRLSCAASGSIFYYNAMGWYRQAPGKERELVATITSGGSTYYADSVKGRFTISRDNAKNTVYLQMNSLKPEDTAVYYCAPRSQSIRYTYIRSYYWGQGTQVTVSS | low polyreactivity |
| QVQLVESGGGLVQAGGRLRLSCAASGYIFNYDMGWYRPAPGKERELVAAINYSGRTYYADSVKGRFTISRDNAKNTVYLQMNRLKAEDTAVYYCAARIIVDDVGTKYYYWGQGTQVTVSS | high polyreactivity |
| QVQLVESGGGLVQAGGSLRLSCAASGRIFKDHAMGWYRQAPGKERELVAGITSIGDNTYYADSVKGRFTISRDNAKNTVYLQMNSLKPEHTAVYYCNADYGYDSVVEYDYWGQGTQVTVSS | low polyreactivity |
| QVQLVESGGGLVQAGGSLRLSCAASGSTFNGNVMGWYRQAPGKERDFVAGISKSGGTTYYADSVKGRFTISRDNAKNTVYLQMNSLKPEDTAVYYCAARGRVRYYPQYYYWGQGTQVTVSS | high polyreactivity |
| QVQLVESGGGLVQAGGSLRLSCAASGFTFAVNAMGWYRQAPGKERELVAAISWSGVSTYYADSVKRRFTISRDNAKNTVYLQMNSLKPEDTAVYYCARRRTKSYTRKYDYWGQGTQVTVSS | low polyreactivity |
| QVQHVESGGGLVQAGGSLRLSCAASGFIFPYYAMGWYRQAPGKERELVAAINSGTSTYYADSVKGRFTISRDNAKNTVYLQMNSLKPEDTAVYYCAAAYPLWYEYDYWGQGTQVTVSS | low polyreactivity |
| QVQLVESGGGLVQAGGSLRLSCAASGSILSENAMGWYRQAPGKERELVATISGSGSSTYYADSVKGRFTISRDNAKNTVYLQMNSLKPEDTAVYYCAAKYYLYWWPYDYWGQGTQVTVSS | low polyreactivity |
| QVQLVESGGGLVQAGGSLRLSCAASGSNFYSYAMGWYRQAPGKESELVAAITKSSGSTYYAASVKGRFTISRDYAKNTVYLQMNSLKPEDTAVYYCAATRYRPVRLYYWGQGTQVTVSS | high polyreactivity |
| QVQLVESGGGLVQAGGSLRLSCAASGRIFGQYAMAWYRHAPGKERELVAAITQRGGSTYYADSVKGRFTISRDNAKNTVYLQMNSLKPEDTAGYYCNKRYRFTGIRDPFDYWGQGTQVTVSS | low polyreactivity |
| QVQLVESGGGLVQAGGSLRLSCAASGSTFYHYAMGWYRQAPGKERELVAAISWSGGSTYYADSVKGRFTISRDNAKNTVYLQMNSLKPEDTAVYYCNKAGRSWFRTGLGYWGKGTQVTVSS | high polyreactivity |
| QVQLESGGGLVQAGGSLRLRCEASGITFQLYDMGWYRQAPGKERELVAAINSSGGSTYYADSVKGRFTISRDNAKNTVYLQMNSLKPEDTAVYYCNVGFAPVTNDQPVSTEYDYWGQGTQVTVSS | low polyreactivity |
| QVQLVESGGGLVQAGGSLRLSCAASGMIFTLYAMGWNRQAPGKERELVAGIDASGGSTSYADSVKGRFTISRDNAKNTVYLQMNSLKPEDTAVYYCAARILPYGYDYWGQGTQVTVSS | low polyreactivity |
| QVQLVESGGGLVQAGGSLRLSCAASGSTFAANAMGWYRPAPGKERELVAAITSSGGSTYYADSVKGRFTISRDNAKNTVYLQMNSLKPEDTAVYYCNKDIERYVRIYDSWGQGTQVTVSS | low polyreactivity |
| QVQLVESGGGLVQAGGSLRLSCAASGRIFFYYAMGWYRQAPGKERELVATITASGDSTYYADSVKGRFTISRDNAKDTVYLQMNSLKPEDTAVYYCAADDGDYYEVDYWGQGTQVTVSS | low polyreactivity |
| QVQLVESGGRLVQAGGSLRIICAASGIIFFHYAMGWYRQAPGKERELVAAITCSGGSTYYADSVKGRFTISRDKAKNTVYLHMNSLKPEDTAVYYGNAVLHRRLYDYWGQGTQVTVSS | high polyreactivity |
| QVHLVESGGGLVQAGGSLRLRCAASGSISGRYAMGWYRQAPGKERELVAAISWIGGSTYYADSVKGRFTISRDNAKNTVYLQMNSLKPEDTAVYYCNVSIDTRTHPLLVVFYGYDYWGQGTQVSVSS | low polyreactivity |
| QVQLVESGGGLVQAGGSLRLSCAASGSIFDVYTMGWYRQAPGKVRELVAAINTGGGSTYYADSVMGRFTISRDNAKNTVYLEMNSLKPEDTAVYYCAASVYHYGPLYYWGEGTQVTVSS | low polyreactivity |

| Sequence | polyreactivity (PSR sort gate) |
| --- | --- |
| QVQLVESGGGLDQAGGSLRLSCAASGRTFEYNAMGLYRQAPGKERELVATIRYSGTSTYADSVKGRFTISRDNAKNTAYLQMNSLKPEDTAVYYCNKLGYYYDRRYDYWGQGTQVTVSS | high polyreactivity |
| QVQLVESGGGLVQAGGSLRLSCAASGRISSYYAMGWYRQAPGKDREFVARIRWSGGSTYYADSVKGRFTISRDNAKNTVYLQMNSLKPEDTAVYYCAAVPYAYGYTYDYWGQGTQVTVSS | high polyreactivity |
| QVQLVESGVGLVQAGGSLRLSCAASGLTFGWYAMGWYRQAPGKERELVASITRRSGSTYYADSVKGRFTISRDNAKNTVYLQMNSLKPEDTAVYYCAARSRGTTRFDFWGQGTQVTVSW | high polyreactivity |
| QVQLVESGGGLVQAGGSLRLSCAASGFIFRYYAMGWYRQAPGKERELVAAITSDGSTYYADSVKGRFTISRDNAKNTVYLQMNSLKPEDTAVYYCARSVYRFYLKTRASDYWGQGTQETVSS | high polyreactivity |
| QVQLVESGGGLVQAGGSLRLSCAASGITFDSNAMGWYRQAPGKERELVAVISSSGGSTNYADSVKGRFTISRDNAKNTVYLQMKSLKPEDTAVYYCAADYRFYYTRWEYSFNYWGQGTQVTVSS | high polyreactivity |
| PVQLVESGGGLVQAGGSLRLSCAASGSTFYIYAMGWYRQAPGKERELVAAITSRGTITSYADSVKGRFTISRDNAKNTVYLQMNSLKPEDTAVYYCAADYWQDGIAYWYDYWGQGTQVTVSS | low polyreactivity |
| QVQLVESGGGLVQAGGSLRLSCAASGYTFRYYVMGWYRQAPGKERELDAAISQRGGSTYYADSVKGRFTISRDNAKNTVYLQMNSLKPEDTAVYYCAASYSTYASRGYGYWGQGTQVTVSS | high polyreactivity |
| QVQLVESGGGLVQAGGSLRLICAASGFTFTQYVMGWYSQAPGKERELVAAINWSGGNTYYAESVKGRFTISRDNAKNTVYLQMNSLKPEDTAVYYCAAYRHRNGYDYWGQGTQVTVSS | high polyreactivity |
| QVQLVESGGGLVQAGGSLRLSCAASGSTFGYYTMGWYSQAPGKEWELVAAITWSGGSTYYADSVKGRFTISRDNAKNTASLQMNSLKPEDTAVYYCNTDQDLVRSYDYWGQGTQVTVSS | low polyreactivity |
| QVQLVESAGGLVQAGGSLRLSCAASGSTLYQYTMGWYRQAPGKERELVAAISRSGGRTYYADSVKGRFTISRDNAKNTVYLQMNSLKPEDTAVYYCAVDPGAYDSWGQGTQVTVSS | high polyreactivity |
| QVQLVESGGGLVQAGGSLRLSCAASGIILSENDMGWYRQAPGKERELVAAITSSGSTSYADSVKGRFTISRDNAKNTVYLQMNSLKPEDTAVYYCAADYLNPFPPYQYWKQSYDYWGQGTQVTVSS | low polyreactivity |
| QVQLVESGGGLVQAGGSLRLSCAASGSIFQGYAMGWYRQAPGKERELVAVITSSGGSTYYADSVKGRFTISRDNAKNTVYLQMNSLKPEDTAVYYCAVGLLVYSRTYIGQAFFRYNYWGQGTQVTVSS | high polyreactivity |
| QDQLVESGGGLVQAVGSLRLSCAASGSIFSFNAIGWYRQAPGKERELVAVITQRGGSTYYADSVKGRFTISRDNAKTTVYLQMNSLKPEDTAVDYCAARTPRGYYYWGQGTQVTVSS | high polyreactivity |
| QVQLVESGGGLVQAGGSLRISSAASGRIFVTNAMRWYRQAPGKERELLAAITRGGNTNYADSVKGRFTISRDNAKNTVYLQMNSLKPEDTAVYYCAADTSYDSVYGYFPGYYYWGQGTQVTVSS | low polyreactivity |
| QVQLVESGGGLVQAGGSLRLSCAASGSTFTINAMGWYRQAPGKERELVAAISRSGVRTFYADSVKGRFTNSRDNAKNTVYLQRNSLKPEDTAVYYCAKQTYRVTTDEGDYWGQGTQVTVSS | high polyreactivity |
| QVQLVESGGGLVQAGGSLRLSCASSGSIFFLYAMGWYRQAPGKERELVAAITGSGSRTYYADSVKGRFTISRDNEKNTVYLHMNSLKPEYTAVYYCAARYYGAYGKQPRARYGYWGKGTQVTVSS | high polyreactivity |
| QVQLVESGGGLVQAGGSLRLSCAASGSIFKLNAMGWYRQAPGKERELVAAISRGGRTYYADSVKGRFTISRDNAKNTVYLQMNSLKPEDTAVYYCAADASSQIWYYPRDDYWGQGTNVTVSS | low polyreactivity |
| QVQLVESGGGLVQAGGSLRLSCAASGRTFAGNAMGWYRQAPGKERELVAAIRRTGGRTYYADSVKGRFTISRDNAKNTVYLQMNSLKPEETAVYYCNAVNKPYTREYGYDYWGQGTQVTGSS | high polyreactivity |
| QVQLVESGAGLVQAGGSLRVSCAASGLIFAWYAMGWYRQAPGKERELVATIDVSGGTYYADSVKGRFTISRDNAQNTVYLQMNSLNPEDTAVYYCAAGVTYWYDAPEYYYWGQVTQVTVSS | high polyreactivity |
| QVQLVESGGGLVQAGGSLRLSCAASGSTYAIYAMGSYRQAPGKERELVASISGGSTNYADSVKGRFTISRDNAKNTVYLQMNSLKPEDTAVYYCAARGALHHWYRYDYWGQGTQVTVSS | low polyreactivity |
| QVQLVESGGGLVQAGGSLRLSCAASGRIFARNALGWYRQAPGKEGELVARIRASGGSTYYADSVKGRFTISRDNEKNTVYLQMNSLKPEDTAVYYCNARTSSPYRVDYWGQGTQVTVSS | high polyreactivity |
